Key:
[1] = molecular target: HLA-A*11:01; assay: IEDB peptide-MHC binding, purified MHC/competitive/fluorescence; filed as Kd, often an IC50 or EC50 that approximates it; ≥ and ≤ were set here for values at or beyond the usual limits of such assays; settings: source organism: Yersinia pestis Nepal516
[2] = molecular target: HLA-B*35:01; assay: as above
[3] = molecular target: HLA-B*15:01; assay: as above
[4] = molecular target: HLA-B*57:01; assay: as above
[5] = molecular target: HLA-B*15:17; assay: as above
[6] = molecular target: HLA-B*51:01; assay: as above
[7] = molecular target: HLA-A*26:01; assay: as above
[8] = molecular target: HLA-B*18:01; assay: as above
[9] = molecular target: HLA-A*02:01; assay: as above
[10] = molecular target: HLA-A*69:01; assay: as above
[11] = molecular target: HLA-B*39:01; assay: as above
[12] = molecular target: HLA-B*46:01; assay: as above; settings: source organism: Orthohantavirus puumalaense
[13] = molecular target: HLA-B*27:03; assay: as above
[14] = molecular target: HLA-B*07:02; assay: IEDB peptide-MHC binding, purified MHC/direct/fluorescence; filed as Kd, often an IC50 or EC50 that approximates it; ≥ and ≤ were set here for values at or beyond the usual limits of such assays; settings: source organism: Orthohantavirus puumalaense
[15] = molecular target: HLA-A*03:01; assay: as above
[16] = molecular target: HLA-A*02:11; assay: as above; settings: source organism: Limestone Canyon virus
[17] = molecular target: HLA-A*68:02; assay: as above; settings: source organism: Limestone Canyon virus
[18] = molecular target: HLA-A*02:03; assay: as above; settings: source organism: Limestone Canyon virus
[19] = molecular target: HLA-A*29:02; assay: as above; settings: source organism: Limestone Canyon virus
[20] = molecular target: HLA-A*02:19; assay: as above; settings: source organism: Limestone Canyon virus
[21] = molecular target: HLA-A*02:12; assay: as above; settings: source organism: Limestone Canyon virus
[22] = molecular target: HLA-A*02:16; assay: as above; settings: source organism: Limestone Canyon virus
[23] = molecular target: HLA-A*24:03; assay: as above; settings: source organism: Limestone Canyon virus
[24] = molecular target: HLA-A*31:01; assay: IEDB peptide-MHC binding, purified MHC/competitive/fluorescence; filed as Kd, often an IC50 or EC50 that approximates it; ≥ and ≤ were set here for values at or beyond the usual limits of such assays; settings: source organism: Vibrio vulnificus YJ016
[25] = molecular target: HLA-A*11:01; assay: IEDB peptide-MHC binding, purified MHC/direct/fluorescence; filed as Kd, often an IC50 or EC50 that approximates it; ≥ and ≤ were set here for values at or beyond the usual limits of such assays; settings: source organism: Vibrio vulnificus
[26] = molecular target: HLA-B*58:01; assay: as above; settings: source organism: Reston ebolavirus - Reston
[27] = molecular target: HLA-B*15:01; assay: as above; settings: source organism: Reston ebolavirus - Reston
[28] = molecular target: HLA-A*02:16; assay: IEDB peptide-MHC binding, purified MHC/competitive/fluorescence; filed as Kd, often an IC50 or EC50 that approximates it; ≥ and ≤ were set here for values at or beyond the usual limits of such assays; settings: source organism: Mycobacterium tuberculosis C
[29] = molecular target: HLA-C*03:03; assay: IEDB peptide-MHC binding, purified MHC/direct/fluorescence; filed as Kd, often an IC50 or EC50 that approximates it; ≥ and ≤ were set here for values at or beyond the usual limits of such assays; settings: source organism: Mycobacterium tuberculosis C
[30] = source organism: Bacillus anthracis str. A0488
[31] = source organism: Orthohantavirus puumalaense
[32] = source organism: Reston ebolavirus

Sequence: TVFSLLLFY
- Kd [1]: 0.5 µM

Sequence: IVVDNTSAF
- Kd [2, 30]: 0.0004 µM
- Kd [3, 30]: 0.0704 µM

Sequence: SPVMGVIGF
- Kd [4, 31]: ≥ 20 µM
- Kd [5, 31]: ≥ 20 µM
- Kd [6, 31]: ≥ 20 µM
- Kd [7, 31]: ≥ 20 µM
- Kd [8, 31]: ≥ 20 µM
- Kd [9, 31]: ≥ 20 µM
- Kd [2, 31]: 0.0005 µM
- Kd [10, 31]: ≥ 20 µM
- Kd [3, 31]: ≥ 20 µM
- Kd [11, 31]: ≥ 20 µM
- Kd [12]: ≥ 20 µM
- Kd [13, 31]: ≥ 20 µM
- Kd [14]: 0.0607 µM
- Kd ([15]; source organism: Limestone Canyon virus): ≥ 20 µM
- Kd [16]: ≥ 20 µM
- Kd [17]: ≥ 20 µM
- Kd [18]: ≥ 20 µM
- Kd [19]: ≥ 20 µM
- Kd [20]: ≥ 20 µM
- Kd [21]: ≥ 20 µM
- Kd [22]: ≥ 20 µM
- Kd [23]: ≥ 20 µM

Sequence: SSGVFHSYK
- Kd [24]: 0.0035 µM
- Kd ([15]; source organism: Vibrio vulnificus): 0.0097 µM
- Kd [25]: ≤ 0.001 µM

Sequence: QAFEAGIDF
- Kd [4, 32]: ≥ 20 µM
- Kd [5, 32]: ≥ 20 µM
- Kd [6, 32]: ≥ 20 µM
- Kd [7, 32]: ≥ 20 µM
- Kd [8, 32]: ≥ 20 µM
- Kd [9, 32]: ≥ 20 µM
- Kd [2, 32]: 0.0002 µM
- Kd [10, 32]: ≥ 20 µM
- Kd [11, 32]: ≥ 20 µM
- Kd [13, 32]: ≥ 20 µM
- Kd [26]: 1.03 µM
- Kd [27]: 0.0766 µM

Sequence: TMDPSVRVL
- Kd ([9]; source organism: Mycobacterium tuberculosis C): 0.0414 µM
- Kd [28]: 0.217 µM
- Kd [29]: 0.03 µM

From the Immune Epitope Database (IEDB)
